Bridge positions count the residues as written; N and C are the ends. Ends that are not written are not given here.
Target: polyclonal mouse anti-TSHR antibodies contained in sera from Ad-TSHR-immunized mice
Assay: competition ELISA: sera pre-incubated with peptide 19, binding of polyclonal anti-TSHR antibodies to coated TSHR-Fc

CHQEEDFRVTC (disulfide 1-11) [cyclic peptide 19]
IC50: 20 nM

— patent publication US20220041692A1
